For 1 molecule, half-life results are on record in patent US10858688 (KYOTO UNIVERSITY, dated 2020).

The target of this assay is T1, actin filament in fixed Xenopus laevis XTC cells (Xenopus laevis).
T1 construct: whole, on cells; Polymer of actin in fixed cells
Put plainly: speckle lifetime distribution in fixed XTC cells, 10 ms/frame at 100 Hz, single exponential fit (FIG. 9a).

Where no end group is shown, it is not given here. Atto 488 = fluorescent body linked to the N terminus

B1: Lifeact peptide (sequence number 19) with an Atto 488 fluorescent body linked to an N terminus (peptide)
peptide: {Atto 488}-MGVADLIKKFESISKEE
notes: Purchased from Sigma-Aldrich; also called Atto488-Lifeact; Atto 488-Lifeact
As a reminder, the half-life is the time needed for the level to fall by half in the phase considered. High values mean slow loss, low ones fast loss. The molecule B1 yielded a half-life of 0.023 s.
